Where a chain is given by its changes, count along the chain named.
B1: 60C03 IgG (antibody)
VH: QVQLRESGPSLVKPSQTLSLTCTASGFSLSDKAVGWVRQAPGKALEWLGGIDTGGSTGYNPGLKSRLSITKDNSKSQVSLSVSSVTTEDSATYYCTTVHQETKKENSCPDGYTSGVECRFRGYTCANDGCWRVCSFTTCSGWMPASDTYRYEYHVDAWGQGLLVTVSS
VL: EAVLNQPSSVSGSLGQRVSITCSGSSSNVGNGYVSWYQLIPGSAPRTLIYGDTSRASGVPDRFSGSRSGNTATLTISSLQAEDEADYFCASAEDSSSNAVFGSGTTLTVL
notes: synthetic bovine IGHV1-7 (VHBUL) scaffold, FR1 to FR3; ultralong CDR-H3 (stalk and knob) of clone 60C03 from immunised cattle; FR4 of the synthetic VH domain; human IgG1 heavy chain constant regions; bovine VL (V30, VLλ30) deduced from PDB entries that share a CDR-identical light chain; human constant lambda region (CLλ); chimeric IgG1; all clones share one fixed light chain and VH scaffold and …
B2: 60H05 IgG (antibody)
VH: B1 VH with E101K, K103N, E105L, N106K
VL: B1 VL
notes: synthetic bovine IGHV1-7 (VHBUL) scaffold, FR1 to FR3; ultralong CDR-H3 (stalk and knob) of clone 60H05 from immunised cattle; FR4 of the synthetic VH domain; human IgG1 heavy chain constant regions; as the light chain of m3: bovine VL (V30, VLλ30) deduced from PDB entries that share a CDR-identical light chain; human constant lambda region (CLλ); chimeric IgG1; also called chimeric bovine × …
B3: 60D01 IgG (antibody)
VH: QVQLRESGPSLVKPSQTLSLTCTASGFSLSDKAVGWVRQAPGKALEWLGGIDTGGSTGYNPGLKSRLSITKDNSKSQVSLSVSSVTTEDSATYYCTTVHQETTKTASCPDGYAEHFGRGWGYWGCGGCDCCQENGAGGGWGNCGLYSTSYTYEHHIDAWGQGLLVTVSS
VL: B1 VL
notes: synthetic bovine IGHV1-7 (VHBUL) scaffold, FR1 to FR3; ultralong CDR-H3 (stalk and knob) of clone 60D01 from immunised cattle; FR4 of the synthetic VH domain; human IgG1 heavy chain constant regions; as the light chain of m3: bovine VL (V30, VLλ30) deduced from PDB entries that share a CDR-identical light chain; human constant lambda region (CLλ); chimeric IgG1; also called chimeric bovine × …
B4: 60E11 IgG (antibody)
VH: QVQLRESGPSLVKPSQTLSLTCTASGFSLSDKAVGWVRQAPGKALEWLGGIDTGGSTGYNPGLKSRLSITKDNSKSQVSLSVSSVTTEDSATYYCTTVHQRTRKTCPDGWRDGSDCPYGHRCGDYDCCGYGCYDGRGTNRFTGVVESYTYEWYVDAWGQGLLVTVSS
VL: B1 VL
notes: synthetic bovine IGHV1-7 (VHBUL) scaffold, FR1 to FR3; ultralong CDR-H3 (stalk and knob) of clone 60E11 from immunised cattle; FR4 of the synthetic VH domain; human IgG1 heavy chain constant regions; as the light chain of m3: bovine VL (V30, VLλ30) deduced from PDB entries that share a CDR-identical light chain; human constant lambda region (CLλ); chimeric IgG1; also called chimeric bovine × …
B5: 60C08 IgG (antibody)
VH: QVQLRESGPSLVKPSQTLSLTCTASGFSLSDKAVGWVRQAPGKALEWLGGIDTGGSTGYNPGLKSRLSITKDNSKSQVSLSVSSVTTEDSATYYCTTVHQKTIETTQKTCPDGYFYADTCWAYSCRCRDCDCCRSSGGCTYSRDSHTATYEWHVDAWGQGLLVTVSS
VL: B1 VL
notes: synthetic bovine IGHV1-7 (VHBUL) scaffold, FR1 to FR3; ultralong CDR-H3 (stalk and knob) of clone 60C08 from immunised cattle; FR4 of the synthetic VH domain; human IgG1 heavy chain constant regions; as the light chain of m3: bovine VL (V30, VLλ30) deduced from PDB entries that share a CDR-identical light chain; human constant lambda region (CLλ); chimeric IgG1; also called chimeric bovine × …
B6: 60F06 IgG (antibody)
VH: QVQLRESGPSLVKPSQTLSLTCTASGFSLSDKAVGWVRQAPGKALEWLGGIDTGGSTGYNPGLKSRLSITKDNSKSQVSLSVSSVTTEDSATYYCTTVHQRTEKIAKCPDGYSDARHCRDGCDCFGWDCFRSGAWAECYYEVYTYVHTYEHHVDAWGQGLLVTVSS
VL: B1 VL
notes: synthetic bovine IGHV1-7 (VHBUL) scaffold, FR1 to FR3; ultralong CDR-H3 (stalk and knob) of clone 60F06 from immunised cattle; FR4 of the synthetic VH domain; human IgG1 heavy chain constant regions; as the light chain of m3: bovine VL (V30, VLλ30) deduced from PDB entries that share a CDR-identical light chain; human constant lambda region (CLλ); chimeric IgG1; also called chimeric bovine × …

How the values were obtained:
[1] = molecular target: T1, EGFR on EGFR-overexpressing tumor cell line A431 (Homo sapiens, A431 cells, UniProt P00533); experiment: flow cytometry on cells; EGFR-positive A431 cells incubated 1 h on ice with antibody derivatives 0.05 nM to 1 µM, detected with Alexa Fluor 488 Fab goat antihuman IgG (H+L); apparent binding affinities; conditions: one partner purified
T1 construct: epidermal growth factor receptor on the surface of A431 cells; also used as the target of the functional rows on A549 cells; also called EGFR-positive A431 cells; source: endogenous, on A431 cells

[2] = molecular target: T1, EGFR on EGFR-overexpressing tumor cell …; experiment: cell-based or functional assay

Binder | EC50 [1] | ADCC EC50 killing: NK cell-mediated lysis of EGFR-overexpressing A431 cells, E:T 5:1 [2] | ADCC mean max killing of A431 cells (normalized to Cetuximab) [2]
B1 | 3 nM | 0.0265 nM | 103%
B2 | 2.6 nM | 0.0164 nM | 105%
B3 | 1.3 nM | 0.606 nM | 76.3%
B4 | 10.1 nM | 0.0033 nM | 96%
B5 | 0.9 nM | 0.0587 nM | 92.1%
B6 | 3 nM | 0.0048 nM | 108%

Reference: paper PMC8573386 (Frontiers in Immunology, 2021)
